Consider 41 sequences from the nanobody polyreactivity screen of Harvey et al. (2022).

The series can be described thus: yeast display, Sf9 membrane polyspecificity reagent, FACS + sequencing; frameworks hold sequencing errors. In a few lines:
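Galactose-induced (36–48 hours) yeast carrying a synthetic nanobody display library were exposed to 10% biotinylated, detergent-solubilized Sf9 membrane reagent at 4 °C for 1 hour. FACS followed streptavidin microbead enrichment, using low and high (top ~1%) gates for expression (anti-HA) and reagent binding (streptavidin). Colony PCR, MiSeq 2 × 250 sequencing and CDR-length filtering followed. Labels for polyreactivity reflect the gate of origin.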
With “QVQLVESGGGLVQAGGSLRLSCAASGIIIVGNSMGWYRQAPGKQRELVASINSGGSTYYADSVKGRFTISRDNAKNTVYLQMNSLKPEDTAVYDCAVEEDRYYYDDYDYCGQGTQVTVSS”, the “polyreactivity (PSR sort gate)” value was “low polyreactivity”.

Regarding “QVQLVESGGGLVQAGGSLRLSCAASGFISVRNAMGWYRQAPGKERELVAAISSGDTTDYADSVKGRFTISRDNAKNTVSLQMNSLKAEDTAVYYCAAVYYGRYYYWGQGTQVTVSS”, the “polyreactivity (PSR sort gate)” value is “low polyreactivity”.

Take “QVQLVESGGGLVQAGGSLRLSCAASGSTFSPNAMGWYRQAPGKERELVAAITYRGANTYYADSVKGRFTISRDNAKNTVYLQMNSLKPEDTAVYYCAAEYAYHHVGFGYWGQGTLVTVSS”: the “polyreactivity (PSR sort gate)” value is listed as “low polyreactivity”.

“QVQLVESGGGLVQAGGSLRLSCAASGSTFGGYAMGWYRQAPGKERELVAAISQSGTRSYYADSVKGRFTISRDNAKNTVYLQMNSLKPEDTAVYYCAAEKRFRKYDYWGQGTQVTVSS”: the “polyreactivity (PSR sort gate)” value is recorded as “high polyreactivity”.

“QVQLVESGGGLVQAGGSLRLSCAASGRIFPDYDMGWYRQAPGKERELVAAITQRGGSTYADSVKGRFTISRDNAKNTVYLQMNSLKPEDTSVYYCAREYYEGYEYWGQGTQVTVSS”: the “polyreactivity (PSR sort gate)” value is “low polyreactivity”.

Consider “QVQLVESGGGLVQAGGSLRLSCAASGRIFKGYSMGGYRQAPGTETELVASIRTGGTTNYADSVKGRFTISRDNAKNTVYLQMNSLKPEDTAVYYCNRGYYSYYGRYYYWGQGTQVTVSS”, for which the “polyreactivity (PSR sort gate)” value is listed as “high polyreactivity”.

For the sequence “QVQLVESGGGLVQAGGRLRLSCAASGRIFVHNAMGWYRQAPGKERELVAAISQNGGRTYYADSVKGRFTISRDNAKNTVYLQLNSLKPEDTAVYYCAAGQARAGLIGGYWGQGTQVTVSS”, the “polyreactivity (PSR sort gate)” value was “high polyreactivity”.

As to “QVQLVESGGGLVQAGGSLRLSCAASGFILDNYAMGWYRQAPGKERELVAAISGSGGSTYYADSVKGRFTISRDNAKNTVYLQMNSLKPEDTAVYYCNRDRLLRQYDYWGQGTQVTVSS”, the “polyreactivity (PSR sort gate)” value is on record as “high polyreactivity”.

On to “QVQRVESGGGLVQAGGSLRLSCAASGFTFVEYAMGWYRQAPGKERELVAAISVSGGSTYYADSVKGRFTISRDNAKNTVYLQMNSLKPEDTAVYYCNATGYQVGSITIYDYWGQGSQVTVSS”, for which the “polyreactivity (PSR sort gate)” value is listed as “low polyreactivity”.

As to “QVQLVESGGGLVQAGGSLRLSCADSGSTFYGNVMGWYRQAPGKERELVAAITRGGTTNYADSVKGRFTISRDNAKNTVYLQMNSLKPEDTAVYYCAKASYWVQASNDYWGQGTQVTVSS”, the “polyreactivity (PSR sort gate)” value is listed as “low polyreactivity”.

As to “QVQLVESGGGLVQAGGSLRLSCAASGSTITYYTMGWYRQAPGKERELVAAISGSGGRTYYADSVKGRFTISRDNEKNTVYLQMNSLKPEDTAVYYCAAVYQLSRYDYWGQGTQVTVSS”, the “polyreactivity (PSR sort gate)” value was “high polyreactivity”.

With “QVQLVESGGGLVQAGGSLRLSCAASGSTFLYYAMGWYRQAPGKERELVATITDGGSTNYADSVKGRFTISRDNAKNTVYLQMNSLKPEDTAVYYCATDSYHYSYGYASLPEYDYWGQGTQVTVSS”, the “polyreactivity (PSR sort gate)” value is “low polyreactivity”.

Take “QVQLVESGGGLDQAGGSLRLSCAASGFIFAYNTMGWYRQAPGKERELVATIRWSGGRTYYADSVKGRFTISRDNAKNSVYLQMNSLKPEDTAVYYCAKRAFSYVGGQQDRKENYYYWGQGTQVTVSS”: the “polyreactivity (PSR sort gate)” value is recorded as “high polyreactivity”.

In the case of “QVQLVESGGGLVQAGGSLRLSCAASGYIFRLNAMGWYRQAAGKERELLAGISTGGRTNYADSVKGRFTISRDNAKNTVNLQMNSLTPEDTAVYYCAAAWHTASWVGSDSLGGGYWGQGTQVTVSS”, the “polyreactivity (PSR sort gate)” value is given as “low polyreactivity”.

For the sequence “QVQLVESGGGLVQAGGSLRLSCAASGFTFSRNVMGWYRQAPGKERELVADITLSGASTYYADSVKARFTISRDNAKNTVYLQMNSLKPEDTSVYSCAADPYHWRWGWRHDYWGQGTQVTVSS”, the “polyreactivity (PSR sort gate)” value is “low polyreactivity”.

For “QVQLVESGGGLVQAGGSLRLSCAASGSTFGYYAMGWYRQAPGKERELVAVITRGGSTYYADSVKGRFTISRDNAKNTVYLQLNSLKPEDTAVYYCNARVQAVHYGYWGQGTQVTVSS”, the “polyreactivity (PSR sort gate)” value is listed as “high polyreactivity”.

Consider “QVQLVESGGGLVQAGGSLRLSCAASGSTFYLNAMGWYRQAPGKERELVAAISSSGGSKYYADSVKGRFTISRDNAKNTVYLQMNSLKPEDTAVYYCACSCFPAVSVYGGDYWGQGTQVTVSS”, for which the “polyreactivity (PSR sort gate)” value is reported as “low polyreactivity”.

Take “QVQLVESGRGLVQAGGSLRLSCAASGSIFSYYAMGWYIQAPGKERELVAAITVRGGSTYYADSVKGRFTISRDNAKNTVYLQMNSLKPEDTAVYYCAAVPGYTHLWGGPFDYWGQGTQVTVSS”: the “polyreactivity (PSR sort gate)” value is listed as “low polyreactivity”.

Consider “QVQLVESGGGLVQAGGSLRLSCAASGGTFEYNAMGWYRQAPGKERELVAAISKSGGRTYYADSVKGRFTISRDNAKNTVYLQMNSLKPEDTAVYYCAKRYVWGQGTQVTVSS”, for which the “polyreactivity (PSR sort gate)” value is reported as “high polyreactivity”.

For the sequence “QVQLVESGGGLVQAGGSLRLSCAASGRIIGLYAMGWYRQAPGKEMELVAAISSAGSTYYADSVKGRFTISRDNAKNTVYLQMNSLKTEDTAVYYCDKSRYRGYDYWGQGTQVTVSS”, the “polyreactivity (PSR sort gate)” value is recorded as “low polyreactivity”.

Consider “QVQLVESGGGLVQAGGSLRISCAASGGTFHRYAMGWYRQAPGKERELVAAISGSGASTYYADSVKGRFTISRDNAKNTVYLQMNSLKPEDTAVYYCNAYYYPYWYRYYYWGQGTQVTVSS”, for which the “polyreactivity (PSR sort gate)” value is given as “high polyreactivity”.

On to “QVQLVESGGGLVQAGGILRLSCAASGRITFSHNTMGWYIQAPGKERELVAAISSGGRTNYADSVKGRFTISRDNAKNTVYLQMNSLKPEDTAVYYCARESHYDFIYDGMDYWGQGTQVTVSS”, for which the “polyreactivity (PSR sort gate)” value is “low polyreactivity”.

Consider “QVQLVESGGGLVQAGGSLRLSCAASVRIFSINAMGWYRQAPGKERELVAAINSGGSTHYADSVKGRFTISRDNAKNTVYLQMNSLKPEDTAGYYCAARKTVSYFRVRTFDYWGQGTQVTVSS”, for which the “polyreactivity (PSR sort gate)” value is given as “low polyreactivity”.

“QVQLVESGGGLVQAGGSLRLSCAASGRILGRYAMGWYRQAPGKERELVAAITSGGNTTYADSVKGRFTISRDNAKNTVYLQMNSLKPEDTAVYYCAAYSYTQLNLMDYWGQGSQVTVSS”: the “polyreactivity (PSR sort gate)” value is reported as “low polyreactivity”.

Regarding “QVQLVESGGGLVQAGGSLRLSCAASGRTFWSYAMGWYRQAPGKERELVATINDSDGSTYADSVKGRFTISRDNAKNTVYLQMNSLKPEDTAVYYCNAQTRAGYYFGYGYWGQGTQVTVSS”, the “polyreactivity (PSR sort gate)” value is given as “low polyreactivity”.

Take “QVQLVESGGGLVQAGGSLRLSCAASGYIFLRNAMGWYRQAPGKERELVAAIRRTGGSTYADSVKGRFTISRDNAKNTVYLQMNSLKPEDTAVYYCNAGYLLYYDYHLFYWVQGTQVTVSS”: the “polyreactivity (PSR sort gate)” value is given as “low polyreactivity”.

For “QVQLVESRGGLVQAGGSLRLSCAASGRIIGYNAMGCYRQAPGKERELVAAINSDGSKNYADSVKGRFTISRDNAKNTVYLQMNSLKPEDTAVYYSIKELYPVGDYEYWGQGSQVTVSS”, the “polyreactivity (PSR sort gate)” value was “low polyreactivity”.

As to “QVQLVESGGGLVQAGGSLRLSCAASGSIFSTYAMGWYRQAPGKERELVAAISQGGSSTYYADSVKGRFTISRDNAKNTVYLQMNSLKPEDTAVYYCATPYSWYHRVYGYDYWGQGTQVTVSS”, the “polyreactivity (PSR sort gate)” value is recorded as “high polyreactivity”.

In the case of “QVQIVESGGGLVQAGGSLRLRCAASGRIVKYAMGWYRHAPGKERELVAAINSGGSTKYADSVKGRFTISRDNAKITVYLQMICLKPEDTAVYYCAARILYHMDLGQGTQVTVSS”, the “polyreactivity (PSR sort gate)” value was “high polyreactivity”.

As to “QVQLVDSGVGLVQAGGSLRLSCAASGSIFYQNAMGWYRQAHGSERELVAAITSDGSTYYADSVKGRFTISRDNAKNTVYLQMNSLKPEDTAVYYCPAEYYGHRYDYCGQGTQVTVSS”, the “polyreactivity (PSR sort gate)” value is given as “low polyreactivity”.

For the sequence “QVQLVESGGGLVQAGGSLRLSCAASGRTFVSYAMGWYRQAPGKERELVAAISSSGGSTYYADSVKGRFTISRDNAKNTVYLQMNSLKPEDTAVYYCAADTTTRAYVEMDYWGQGTQVTVSS”, the “polyreactivity (PSR sort gate)” value is listed as “low polyreactivity”.

Take “QVQLVESGGGLVQAGGSLRLSCAASGLTFQYNAMGWYRQAPGKERELVAANSRSGGRTYYADSVKGRFTISRDNAKNTVYLQLNSLKPEDTAVYYCAARDRSTRSDLTSYSVLYGNYYWGQGTQVTVSS”: the “polyreactivity (PSR sort gate)” value is reported as “high polyreactivity”.

For the sequence “QVQLVESGGGLVQAGGRLLLSCAASGGTFRVYAMGWYIQAPGKERELVASISWSSGITYYADSVKGRFTISRDNAKNTVYLQMNSLKPEDTAFYYCAAEGHVTYGAPGRLYRMGYWGQGTQVTVSS”, the “polyreactivity (PSR sort gate)” value is given as “low polyreactivity”.

As to “QVQLVESGGGLVQAGGSLRLSCAASGFTFYRYAMGWYRQAPGKERELVAAITWSGGSTYYADSVKGRFTISRDNAKNTVYLQMNSLKPVDTAVYYCAADIYDGGFDYWGQGTQVTVSS”, the “polyreactivity (PSR sort gate)” value was “low polyreactivity”.

With “QVQLVESGGGLVQAGGSLRLSCAASGRTFGYTMGWYRQAPGKERELVAAITRSVTTYYADSVKGRFTISRDNAKNTVYLQMNSLKPEDTAVYYCAARPKYPYGRFGYYWGQGTQVTVSS”, the “polyreactivity (PSR sort gate)” value is on record as “high polyreactivity”.

As to “QVQLVESGGGLVQAGGSLRLSCAASGRTFGSYAMGWYRQAPGKERELVAAITTDASTNYADSVKGRFTISRDNAKNTVYLQMNSLKPEDTAVYYCAKRKRTNYGFWGQGTQVTVSS”, the “polyreactivity (PSR sort gate)” value is “low polyreactivity”.

In the case of “QVQLVESGGGLVQAGGSLRLSCAASGRSFYRNAMGWYRQAPGKERELVAAITSSGASTYYADSVKGRFTISRDNAKNTVYLQMNSLKPEDTAVYYCAAKYVYSVGNYRYDYWGQGTQVTVSS”, the “polyreactivity (PSR sort gate)” value is recorded as “low polyreactivity”.

With “QVQLVESGGGLVQAGGSLRLSCAASGSTFYAYAMGSYRQSPGKERELVAVITSGGTTKYADSVKGRFTISRDNAKNTVYLQLNSLKPEDTAVYYCNVAGRDYAVRWGSFVFWGQGTQVTVSS”, the “polyreactivity (PSR sort gate)” value is “low polyreactivity”.

For the sequence “QVQLVESGGGLVQAGGSLRLSCAASGNIFVRYVMGWYRQAPGKERELVAAITTSGGSTRYADSVKGRFTISRDNAKNTVYLQMNSLKPEDTAVYYCAARFRYRHLTYGYWGQGTQVTVSS”, the “polyreactivity (PSR sort gate)” value was “high polyreactivity”.

In the case of “QVQLVESGGGLVQAGGSLRLSCAASGRTFGGNAMGWYRQAPGKERELVAAISRSGGRTYYADSVKGRFTISRDNAKNTVYLQMNSLKPEDTAVYYCAAKYQYTQYDYWGQGTQVTVSS”, the “polyreactivity (PSR sort gate)” value is on record as “high polyreactivity”.

Take “QVQLVESGGGLVQAGGSLRLSCAASGLTFVYYAMGWFRQAPGKERELVAAISRGGTTYYADSVKGRFTISRDNAKNTVYLQMNSLKPEETAVYYCNAARYGFGSAYDYWGQGTQGTVSS”: the “polyreactivity (PSR sort gate)” value was “high polyreactivity”.
